Source: patent US12404345B2, “Humanized antibodies against iRHOM2” (SCIRHOM GMBH, priority 2021, dated 2025)

T1: dog iRhom2 (Canis lupus familiaris, UniProt Q00M95)
T1 construct: pMSCV-dog-iR2-FL-WT-T7 encoding dog iRhom2 full length wild type; expressed in transfected cells; host or cells: immortalized iRhom1/2-/- DKO mouse embryonic fibroblasts, pMSCV retroviral infection
T1 sequence (Q00M95 1-827): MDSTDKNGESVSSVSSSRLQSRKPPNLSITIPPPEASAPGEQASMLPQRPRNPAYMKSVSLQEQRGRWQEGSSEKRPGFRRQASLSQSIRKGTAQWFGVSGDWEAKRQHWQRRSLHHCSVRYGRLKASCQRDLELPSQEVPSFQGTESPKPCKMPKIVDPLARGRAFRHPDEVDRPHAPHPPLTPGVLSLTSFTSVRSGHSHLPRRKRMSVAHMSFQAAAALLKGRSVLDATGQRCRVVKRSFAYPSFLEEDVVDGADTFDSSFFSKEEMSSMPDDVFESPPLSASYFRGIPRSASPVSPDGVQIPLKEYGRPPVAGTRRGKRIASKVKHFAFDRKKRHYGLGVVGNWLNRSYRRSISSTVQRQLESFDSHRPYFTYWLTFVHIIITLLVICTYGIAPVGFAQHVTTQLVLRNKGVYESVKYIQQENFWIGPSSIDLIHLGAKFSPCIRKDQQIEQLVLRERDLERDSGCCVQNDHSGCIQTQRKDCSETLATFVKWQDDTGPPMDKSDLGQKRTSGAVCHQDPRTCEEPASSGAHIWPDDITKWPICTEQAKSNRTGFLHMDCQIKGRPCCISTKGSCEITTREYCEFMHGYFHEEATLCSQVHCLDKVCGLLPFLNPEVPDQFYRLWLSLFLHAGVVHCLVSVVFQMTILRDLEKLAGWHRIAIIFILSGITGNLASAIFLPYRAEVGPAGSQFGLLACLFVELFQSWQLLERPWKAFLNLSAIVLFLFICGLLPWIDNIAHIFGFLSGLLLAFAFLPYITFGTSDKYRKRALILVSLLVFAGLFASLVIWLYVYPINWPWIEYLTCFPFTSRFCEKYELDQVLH


Assays:
rabbit iRhom2 = assay: FACS cross-reactivity on MEF-DKO-Rabbit-iR2-FL-WT-T7 cells; type: binding; conditions: antibody at 3 μg/ml
Excerpt: (§1) Next, iRhom1/2−/− DKO MEFs stably expressing a tagged form of rhesus monkey, cynomolgus monkey, dog or rabbit iRhom2 were generated in order to determine cross-reactivity of the antibodies of the invention with the respective orthologue of iRhom2. iRhom1/2−/− DKO MEFs stably expressing a tagged form of rhesus monkey, cynomolgus monkey, dog or rabbit iRhom1 were generated to confirm specificity for iRhom2 versus iRhom1 of these species.
(§2) In brief, on day 1, Phoenix-ECO cells (American Type Culture Collection, USA) were seeded on 6-well tissue culture plates (Greiner, Germany) in standard growth medium at 8×10^5 cells per well and kept overnight at 37° C., 5% CO2. On day 2, the medium was replaced by fresh medium supplemented with chloroquine (Sigma-Aldrich, USA) at a final concentration of 25 μM. Applying the calcium phosphate method, cells were transfected with 2 μg/ml of pMSCV (Clontech, USA) empty vector, pMSCV-rhesus-iR2-FL-WT-T7 encoding rhesus monkey iRhom2 full length wild type C-terminally tagged with 3 consecutive copies of the T7 epitope, pMSCV-cyno-iR2-FL-WT-T7 encoding cynomolgus monkey iRhom2 full length wild type C-terminally tagged with 3 consecutive copies of the T7 epitope, pMSCV-dog-iR2-FL-WT-T7 encoding dog iRhom2 full length wild type C-terminally tagged with 3 consecutive copies of the T7 epitope or pMSCV-rabbit-iR2-FL-WT-T7 encoding rabbit iRhom2 full length wild type C-terminally tagged with 3 consecutive copies of the T7 epitope, respectively, and were kept at 37° C., 5% CO2. After 7 hours, the transfections were stopped by replacing cell supernatants with standard growth medium lacking chloroquine, and cells were incubated at 37° C., 5% CO2 to allow virus production overnight. In parallel, immortalized iRhom1/2−/− DKO MEFs as target cells for retroviral infection were seeded on 6-well tissue culture plates (Greiner, Germany) in standard growth medium at 1×10^5 cells per well and were also kept overnight at 37° C., 5% CO2. On day 3, the supernatants of Phoenix-ECO cells releasing pMSCV, pMSCV-rhesus-iR2-FL-WT-T7, pMSCV-cyno-iR2-FL-WT-T7, pMSCV-dog-iR2-FL-WT-T7 or pMSCV-rabbit-iR2-FL-WT-T7 ecotrophic virus, respectively were collected, filtered with 0.45 μm CA filters, and supplemented with 4 μg/ml of polybrene (Sigma-Aldrich, USA). Upon removal of medium from the immortalized iRhom1/2−/− DKO MEFs, the virus containing supernatants were added to the target cells for 4 hours at 37° C., 5% CO2 for first infection. Simultaneously, Phoenix-ECO cells were re-incubated with fresh medium, which, after another 4 hours, was filtered and used for the second infection of the respective target cell populations, again in the presence of 4 μg/ml of polybrene. Likewise, a third, but overnight infection cycle was performed. On day 4, virus containing cell supernatants were replaced by fresh standard growth medium. From day 5 onwards, cells were grown in the presence of 2 mg/ml of geneticin (G418, Thermo Fisher Scientific, USA) for the selection of immortalized MEF-DKO-EV control cells stably infected with pMSCV empty vector, pMSCV-rhesus-iR2-FL-WT-T7 cells stably expressing rhesus monkey iRhom2 full length wild type C-terminally tagged with 3 consecutive copies of the T7 epitope, pMSCV-cyno-iR2-FL-WT-T7 cells stably expressing cynomolgus monkey iRhom2 full length wild type C-terminally tagged with 3 consecutive copies of the T7 epitope, pMSCV-dog-iR2-FL-WT-T7 cells stably expressing dog iRhom2 full length wild type C-terminally tagged with 3 consecutive copies of the T7 epitope or pMSCV-rabbit-iR2-FL-WT-T7 cells stably expressing rabbit iRhom2 full length wild type C-terminally tagged with 3 consecutive copies of the T7 epitope, respectively. Upon propagation, cells were stocked for future usage. In parallel, iRhom1/2−/− DKO MEFs stably expressing a tagged form of rhesus monkey, cynomolgus monkey, dog or rabbit iRhom1 were generated in an analogous manner. […]

dog iRhom2 = target: T1, dog iRhom2; assay: FACS cross-reactivity on MEF-DKO-Dog-iR2-FL-WT-T7 cells; type: binding; conditions: antibody at 3 μg/ml
Excerpt: as §1, §2

Molecule	binding to dog iRhom2 on MEF-DKO-Dog-iR2-FL-WT-T7 cells (dog iRhom2)	binding to rabbit iRhom2 on MEF-DKO-Rabbit-iR2-FL-WT-T7 cells (rabbit iRhom2)
42-B-02: humanized antibody binding human iRhom2; HCVD SEQ ID NO 33, LCVD SEQ ID NO 37 (antibody, V domains shown, antibody sequences) VH: QVTLRESGPALVKPTQTLTLTCTFSGFSLSTFGRGVGWIRQPPGKALEWLAHIWWDDEKYYNSALKSRLTISKDTSKNQVVLTITNMDPVDTATYYCARIQNYGSNYWYFDVWGQGTLVTVSS VL: AIQLTQSPSSLSASVGDRVTITCRASSRISYMFWYQQKPGKAPKVLIYDTSNLASGVPSRFSGSGSGTDYTLTISSLQPEDFATYYCQQWNSYPLTFGQGTKLEIK	recognize dog iRhom2	recognize rabbit iRhom2
42-B-04: humanized antibody binding human iRhom2; HCVD SEQ ID NO 41, LCVD SEQ ID NO 45 (antibody, V domains shown, antibody sequences) VH: QVTLRESGPALVKPTQTLTLTCTFSGFSLSTFGRGVGWIRQPPGKALEWLAHIWWDDEKYYNSALKSRLTISKDTSKNQVVLTITNMDPVDTATYYCARIQNYGSNYWYFDVWGQGTLVTVSS VL: AIQLTQSPSSLSASVGDRVTITCRASSRISYMFWYQQKPGKAPKVLIYDTSNLASGVPSRFSGSGSGTDYTLTISSLQPEDFATYYCQQWNAYPLTFGQGTKLEIK	recognize dog iRhom2	recognize rabbit iRhom2
16-B-07: humanized antibody binding human iRhom2; HCVD SEQ ID NO 17, LCVD SEQ ID NO 21 (antibody, V domains shown, antibody sequences) VH: QVTLRESGPALVKPTQTLTLTCTFSGFSLSTFALGVGWIRQPPGKALEWLAHIWWDEDKYYNPALKSRLTISKDTSKNQVVLTITNMDPVDTATYYCARITTYYYGMDYWGQGTLVTVSS VL: EIVMTQSPDFQSVTPKEKVTITCRASQSIGNHLHWYQQKPDASPKLLIKYASQSISGVPSRFSGSGSGTDFTLTINSLEAEDAATYFCQQSYQWPLTFGQGTKLEIK	recognize dog iRhom2	recognize rabbit iRhom2
16-B-05: humanized antibody binding human iRhom2; HCVD SEQ ID NO 9, LCVD SEQ ID NO 13 (antibody, V domains shown, antibody sequences) VH: QVTLRESGPALVKPTQTLTLTCTFSGFSLSTFALGVGWIRQPPGKALEWLAHIWWDEDKYYNPALKSRLTISKDTSKNQVVLTITNMDPVDTATYYCARITTYYYGMDYWGQGTLVTVSS VL: EIVMTQSPDFQSVTPKEKVTITCRASQSIGNHLHWYQQKPDASPKLLIKYASQSISGVPSRFSGSGSGTDFTLTINSLEAEDAATYFCQQSYNWPLTFGQGTKLEIK	recognize dog iRhom2	recognize rabbit iRhom2

Further lines, with some results ahead:

binding to dog iRhom2 on MEF-DKO-Dog-iR2-FL-WT-T7 cells (dog iRhom2)	Molecule	binding to rabbit iRhom2 on MEF-DKO-Rabbit-iR2-FL-WT-T7 cells (rabbit iRhom2)
recognize dog iRhom2	23-B-04: humanized antibody binding human iRhom2; HCVD SEQ ID NO 25, LCVD SEQ ID NO 29 (antibody, V domains shown, antibody sequences) VH: QVTLRESGPALVKPTQTLTLTCTFSGFSLSTFGMGVGWIRQPPGKALEWLAHIWWDDEKYYNSALKSRLTISKDTSKNQVVLTITNMDPVDTATYYCARISNYGSNYWYFNVWGQGTLVTVSS VL: AIQLTQSPSSLSASVGDRVTITCRASSSVSYMYWYQQKPGKAPKVLIYDTSNLASGVPSRFSGSGSGTDYTLTISSLQPEDFATYYCQQWNAYPLTFGQGTKLEIK	recognize rabbit iRhom2
Strong binding	16-B-03: humanized antibody binding human iRhom2; HCVD SEQ ID NO 1, LCVD SEQ ID NO 5 (antibody, V domains shown, antibody sequences) VH: QVTLRESGPALVKPTQTLTLTCTFSGFSLSTFALGVGWIRQPPGKALEWLAHIWWDDDKYYNPALKSRLTISKDTSKNQVVLTITNMDPVDTATYYCARITTYYYGMDYWGQGTLVTVSS VL: EIVMTQSPDFQSVTPKEKVTITCRASQSIGNHLHWYQQKPDASPKLLIKYASQSISGVPSRFSGSGSGTDFTLTINSLEAEDAATYFCQQSYQWPLTFGQGTKLEIK	Strong binding
